The series is described as follows: protein stability index of a GFP-peptide fusion (GPS, HEK-293T) (PSI 1-6); higher = more stable.
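Also: lentivirally expressed fusions sorted by FACS into six bins by GFP to DsRed ratio, PSI derived from sequencing read proportions per bin multiplied by bin number.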

In the case of FVAENSSLHPESGQENDATSPHFS [CD69 WT], the protein stability index (parent: IOH57037_2, c terminus: a fixed tail appended) came to 2.9.

With TPMTIPEFFRESVNRFGTYPALAS, the protein stability index (parent: IOH62594_9, c terminus: a fixed tail appended) worked out at 2.12.

WIHCFEGVTAIIFCVALSDYDLVL [GNAI1 WT]: where the note is “parent: IOH55111_36, c terminus: a fixed tail appended”, the protein stability index was determined as 2.97.

Consider ASVTIQARAEQEEEFISNTLFKKI, for which the protein stability index (parent: IOH61736_17, c terminus: a fixed tail appended) was found to be 3.51.

Take MAEISRIQYEMEYTEGISQRMRVP: the protein stability index (parent: IOH62657_1, c terminus: a fixed tail appended) was 2.65.

Regarding LPQETNLTLKVCKPQAPQKLDPTL, the protein stability index (parent: IOH57371_9, c terminus: a fixed tail appended) stood at 3.74.

Turning to FTPPTSLTRAGMSYYNSPGLHVQH, where the note is “parent: IOH61736_64, c terminus: a fixed tail appended”, the protein stability index was determined as 1.82.

As to AGSRQALSFEVPPCNYDPEKWIQ [MGC16075 WT], under “parent: IOH57016_8, c terminus: native”, the protein stability index was found to be 1.84.

Take FAQADALKGTLVSTLKEVKPTVFI: the protein stability index (parent: IOH62594_50, c terminus: a fixed tail appended) amounted to 1.64.

Take YTEGISQRMRVPEKLKVAPPNADL: the protein stability index (parent: IOH62657_3, c terminus: a fixed tail appended) was 2.94.

For FHGTRQYKFDPKTKRILTLQKANS, the protein stability index (parent: IOH59103_74, c terminus: a fixed tail appended) is 1.72.

Take LNFQIEHHLFPTMPRHNYHKVAPL [FADS1 WT]: the protein stability index (parent: IOH55275_64, c terminus: a fixed tail appended) is 2.38.

As for EKQKQPRWREGTKDSHDPLPSWAE, the protein stability index (parent: IOH61084_93, c terminus: a fixed tail appended) was determined as 2.16.

Consider YAELGQCSVFPATDAPEQFISQVT, for which, under “parent: IOH57150_92, c terminus: a fixed tail appended”, the protein stability index amounted to 2.17.

As for LQQLRARLQGLEADCVRGPDGVCL, the protein stability index (parent: IOH61084_56, c terminus: a fixed tail appended) was found to be 2.22.

As to DDLTVVDAASLRRQIIKLNRRLQL, the protein stability index (parent: IOH62657_32, c terminus: a fixed tail appended) was 2.1.

Take ISKKFGDMSYSIRHSISMPAMRNS [TPD52L1 WT]: for the setting “parent: IOH59709_21, c terminus: a fixed tail appended”, the protein stability index is 2.22.

Take YHIYVALEEEIERNKESPVFAPVY [HMOX1 WT]: where the note is “parent: IOH54938_10, c terminus: a fixed tail appended”, the protein stability index came out at 2.02.

For IVRLHDSISEEGFHYLVFDLVTGG [CAMK2D WT], the protein stability index (parent: IOH54032_13, c terminus: a fixed tail appended) came out at 2.65.

Regarding FVRGDHRDNSPFDGPGGNLAHAFQ, under “parent: IOH59103_28, c terminus: a fixed tail appended”, the protein stability index was found to be 1.98.

Consider ITQSWQVSVRVQPRGRAHLLPNPY, for which the protein stability index (parent: IOH58746_10, c terminus: a fixed tail appended) was determined as 1.87.

For YQSGGRIRRPVNVPIDIFSEEIRF, the protein stability index (parent: IOH61428_28, c terminus: a fixed tail appended) stood at 2.

As for RGRHEQSPTSRPRKVSSLPPRSC, where the note is “parent: IOH58746_22, c terminus: native”, the protein stability index came out at 2.58.

QVANSAFVERVRKRGFEVVYMTEP: the protein stability index (parent: IOH61079_83, c terminus: a fixed tail appended) was 2.26.

Turning to LPVETLGPASRMDPESERALQAPH, the protein stability index (parent: IOH61084_4, c terminus: a fixed tail appended) worked out at 4.39.

Take KAVEEELDAEDRPAWNSKLQYILA: the protein stability index (parent: IOH55656_9, c terminus: a fixed tail appended) came out at 2.81.

On to FTSPDYQQQCHEMAERLEDSVLKG [C1orf55 WT], for which the protein stability index (parent: IOH61664_26, c terminus: a fixed tail appended) was 2.15.

As to PRGRAHLLPNPYQQDFLGLPEELR, the protein stability index (parent: IOH58746_12, c terminus: a fixed tail appended) stood at 3.93.

With MELLRTITYQPAASTKMCEQALGK, for the setting “parent: IOH57150_1, c terminus: a fixed tail appended”, the protein stability index stood at 2.16.

With GERVVINISGLRFETQLKTLCQFP, for the setting “parent: IOH61428_18, c terminus: a fixed tail appended”, the protein stability index came to 2.31.

Take CRNCINLQNEAQKRESFLKYKCLL: the protein stability index (parent: IOH62149_105, c terminus: a fixed tail appended) was found to be 2.

With YTPDLPRADVDHAIEKAFQLWSNV, the protein stability index (parent: IOH59103_21, c terminus: a fixed tail appended) was 1.83.

Regarding HMFTPKLDKMLDPQVWREAATQVF, the protein stability index (parent: IOH55656_48, c terminus: a fixed tail appended) was found to be 1.92.

Consider ETIQGFWLLTKIDHWNNEKERILL [TPRG1 WT], for which, where the note is “parent: IOH59452_16, c terminus: a fixed tail appended”, the protein stability index is 2.09.

Consider YHTSQSGDEMTSLSEYVSRMKETQ, for which, under “parent: IOH61079_77, c terminus: a fixed tail appended”, the protein stability index was found to be 3.7.

Regarding MFFKDRFYMRTNPFYPEVELNFIS, the protein stability index (parent: IOH59103_50, c terminus: a fixed tail appended) was 2.27.

In the case of HDPLYGKLFSTYLRPPHTSRGTSQ [LPCAT4 WT], under “parent: IOH62663_80, c terminus: a fixed tail appended”, the protein stability index came to 2.6.

For YCSIKCQQEHWHAEHKRTCRRKR [ZMYND11 WT], the protein stability index (parent: IOH62570_82, c terminus: native) is 2.53.

As for VKGCSMYVALFPCNECAKLIIQAG [DCTD WT], for the setting “parent: IOH54732_19, c terminus: a fixed tail appended”, the protein stability index was determined as 2.63.

On to EGLLRFSSWPFSIQDVVQPLTLQV, for which the protein stability index (parent: IOH56238_29, c terminus: a fixed tail appended) worked out at 2.09.

On to VEKVLRRWVDEEWPKRERGDPSRH [EDARADD WT], for which the protein stability index (parent: IOH59721_31, c terminus: a fixed tail appended) is 2.77.

Take YQSFVQFLQYYYQSGCLYRLRALG [TMEM120A WT]: the protein stability index (parent: IOH55078_39, c terminus: a fixed tail appended) turned out to be 2.71.

As for EADYEDDSKIAFLMQLQDIQYLTE, the protein stability index (parent: IOH62149_110, c terminus: a fixed tail appended) turned out to be 3.05.

Turning to RQHHHQSSFPGSLPQETNLTLKVC, the protein stability index (parent: IOH57371_7, c terminus: a fixed tail appended) came out at 2.86.

Regarding EADKNDKAVKDLVVLLFETALLSS, the protein stability index (parent: IOH61079_108, c terminus: a fixed tail appended) was determined as 1.84.

For the protein EQVFSLGDGVSGGFFGIRDSSFL [ZBED1 WT], the protein stability index (parent: IOH55626_115, c terminus: native) came to 3.38.

Regarding CCSSADICPKCWTLMTMAIRIIDR [PRIM1 WT], the protein stability index (parent: IOH60890_21, c terminus: a fixed tail appended) worked out at 1.95.

As for TLFKKIQALQKEKETLAVNYEKEE, the protein stability index (parent: IOH61736_20, c terminus: a fixed tail appended) amounted to 3.05.

Regarding FGEDGIFRHDRLRFRDFVDALEDS, the protein stability index (parent: IOH61084_108, c terminus: a fixed tail appended) is 2.59.

Take KIREKEEWIKLDYHRRHNPKTNED: under “parent: IOH62149_64, c terminus: a fixed tail appended”, the protein stability index was determined as 4.36.

As to FTQSGPIVSRATGRCLEVEMSKDA [GALNT9 WT], the protein stability index (parent: IOH59749_32, c terminus: a fixed tail appended) was 2.02.

Take FMPAMQFSIPPWRYDAEVVAIAQK [KIAA1161 WT]: the protein stability index (parent: IOH61072_98, c terminus: a fixed tail appended) came out at 1.76.

For the protein FCASTRLPPTPLLLFPEEEATNGR, the protein stability index (parent: IOH56238_25, c terminus: a fixed tail appended) was 2.88.

(Values after the supplement of paper PMC10567573.)
